{
  "source": "patent US8309791",
  "test_in_all_cases": "cell_activity",
  "key": {"[1]": {"test_system": "Passport (PP, PPTN) transposase PTs1", "settings": "colony formation in PEGE cells"}, "[2]": {"test_system": "Sleeping Beauty transposase SB11 (synthetic (reconstructed fish Tc1-like)?)", "settings": "colony formation in PEGE cells"}, "Tol2 transposase": {"test_system": "Tol2 transposase", "settings": "colony formation in PEGE cells"}, "piggyBac transposase": {"test_system": "piggyBac transposase", "settings": "colony formation in PEGE cells; TTAA target"}, "[3]": {"test_system": "rtTR-KRAB2S-M2 (Escherichia coli / Homo sapiens fusion?)", "settings": "tet-off version, shCFTR1 expression with vs without doxycycline in pig fibroblasts"}, "[4]": {"test_system": "tTR-KRAB (Escherichia coli / Homo sapiens fusion?)", "settings": "tet-on version, shCFTR1 expression with vs without doxycycline in pig fibroblasts"}},
  "data": [
    {"substance": "PP transposon inverted repeats (pPTnP-PTK)", "values": [
      {"measurement": "activity (fold over no transposase)", "setting": "[1]", "value": 5}
    ]},
    {"substance": "SB transposon inverted terminal repeats (pT2-FloxP-PTK, pKT2P-PTK)", "values": [
      {"measurement": "activity (fold over no transposase)", "setting": "[2]", "value": 13.5}
    ]},
    {"substance": "mini Tol2 transposon inverted repeats (pGTol2P-PTK)", "values": [
      {"measurement": "activity (fold over no transposase)", "setting": "Tol2 transposase", "value": 21}
    ]},
    {"substance": "piggyBac LTR1/LTR2 (pPBTP-PTK)", "values": [
      {"measurement": "activity (fold over no transposase)", "setting": "piggyBac transposase", "value": 28}
    ]},
    {"substance": "tet operator (TRE)", "values": [
      {"measurement": "activity", "setting": "[3]", "value": 67, "unit": "fold change"},
      {"measurement": "activity", "setting": "[4]", "value": 64, "unit": "fold change"}
    ]}
  ]
}
